Changes are numbered by the printed parent chain. Names and notes keep the numbering of the source.
T1: mouse FcγRIII extracellular domain, C-terminally His-tagged (mouse, UniProt P08508 31-215)
T1 construct: the whole entry is named; also called mFcγRIII; mFcgRIII
T1 chain: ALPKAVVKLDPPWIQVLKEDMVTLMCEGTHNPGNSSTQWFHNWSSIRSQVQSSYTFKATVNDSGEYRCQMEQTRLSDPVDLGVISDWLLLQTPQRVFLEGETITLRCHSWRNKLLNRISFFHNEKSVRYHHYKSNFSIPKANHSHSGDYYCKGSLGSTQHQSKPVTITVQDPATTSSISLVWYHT

T2: mouse FcγRII extracellular domain, C-terminally His-tagged (mouse, UniProt P08101 30-210)
T2 construct: the whole entry is named; also called mFcγRII; mFcgRII
T2 sequence: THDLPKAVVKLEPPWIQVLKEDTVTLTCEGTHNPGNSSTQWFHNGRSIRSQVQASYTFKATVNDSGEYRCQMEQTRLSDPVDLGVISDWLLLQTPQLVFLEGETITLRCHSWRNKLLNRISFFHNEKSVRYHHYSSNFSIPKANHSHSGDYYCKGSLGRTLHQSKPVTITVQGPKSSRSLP

T3: mouse FcγRII extracellular domain, C-terminal His tag (mouse, UniProt P08101 30-210)
T3 construct: Whole entry named; also called mFcγRII; mFcgRII
T3 sequence: T2 sequence

T4: mouse FcγRIII extracellular domain, C-terminal His tag (mouse, UniProt P08508 31-215)
T4 construct: Whole entry named; also called mFcγRIII; mFcgRIII
T4 chain: T1 chain

T5: mouse FcγRIII (mouse, UniProt P08508 31-215)
T5 construct: Extracellular domain with C-terminal His tag, made in FreeStyle 293 cells; also called mFcγRIII; mFcgRIII
T5 chain: T1 chain

T6: mouse FcγRII (mouse, UniProt P08101 30-210)
T6 construct: Extracellular domain with C-terminal His tag, made in FreeStyle 293 cells; also called mFcγRII; mFcgRII
T6 sequence: T2 sequence

B1: H237-MB546/MRAL-k0 (antibody, mouse IgG1, kappa)
heavy: QVQLQESGPGLVKPSETLSLTCAVSGHSISHDHAWSWVRQPPGEGLEWIGFISYSGITNYNPSLQGRVTISRDNSKNTLYLQMNSLRAEDTAVYYCARSLARTTAMDYWGEGTLVTVSSAKTTPPSVYPLAPGSAAQTNSMVTLGCLVKGYFPEPVTVTWNSGSLSSGVHTFPAVLQSDLYTLSSSVTVPSSTWPSETVTCNVAHPASSTKVDKKIVPRDCGCKPCICEPNEVEMVFIFPPKPKDVLTITLTPKVTCVVVDISKDDPEVQFSWFVDDVEVHTAQTQPREEQFNLTFRSVSELPIMHQDWLNGKEFKCRVDSAAFPAPIERTISKTKGRPKAPQVYTIPPPKEQMAKDKVSLTCMITDFFPEDITVEWQWNGQPAENYKNTQPIMDTDGSYFVYSKLNVQKSNWEAGNTFTCSVLHEGLHNHHTEKSLSHSPGK
light: not shown
notes: copies: 2 + 2
B2: H237-MB093/MRAL-k0 (antibody, mouse IgG1, kappa)
heavy: B1 heavy with E229T, P230V, N231P, M235S, L294S, D320N, R330K
light: not shown
notes: copies: 2 + 2
B3: H237-MB546/MRAL-k0 (antibody)
heavy: B1 heavy
light: not shown
notes: copies: 2 + 2
B4: H237-MB855/MRAL-k0 (antibody, mouse IgG1, kappa)
heavy: B1 heavy with M235L, Q291L, L294S, D320N, A322D, A323G
light: not shown
notes: copies: 2 + 2
B5: H237-MB723/MRAL-k0 (antibody, mouse IgG1, kappa)
heavy: B1 heavy with P230D, N231Y, V233E, M235D, L294S, D320N, R330K
light: not shown
notes: copies: 2 + 2
B6: H237-MB541/MRAL-k0 (antibody)
heavy: B1 heavy with D320N
light: not shown
notes: copies: 2 + 2
B7: H237-MB853/MRAL-k0 (antibody, mouse IgG1, kappa)
heavy: B1 heavy with M235L, Q291L, L294S, D320N, A322D, A323G, P327Y, R330K
light: not shown
notes: copies: 2 + 2
B8: H237-MB861/MRAL-k0 (antibody, mouse IgG1, kappa)
heavy: B1 heavy with M235L, K264D, L294S, A322D, A323G, R330K
light: not shown
notes: copies: 2 + 2
B9: H237-MB526/MRAL-k0 (antibody, mouse IgG1, kappa)
heavy: B1 heavy with E229Q, M235E, D320N, R330K
light: not shown
notes: copies: 2 + 2
B10: H237-MB092/MRAL-k0 (antibody, mouse IgG1, kappa)
heavy: B1 heavy with E229T, P230V, N231P, E234D, M235S, L294S, D320N, R330K
light: not shown
notes: copies: 2 + 2
B11: H237-MB075/MRAL-k0 (antibody, mouse IgG1, kappa)
heavy: B1 heavy with E229T, P230V, N231P, V233E, E234S, M235S, L294S, D320N, R330K
light: not shown
notes: copies: 2 + 2
B12: H237-MB547/MRAL-k0 (antibody, mouse IgG1, kappa)
heavy: B1 heavy with D320N, A322D
light: not shown
notes: copies: 2 + 2
B13: H237-MB528/MRAL-k0 (antibody, mouse IgG1, kappa)
heavy: B1 heavy with E229Q, M235E, D320N, A322D, R330K
light: not shown
notes: copies: 2 + 2
B14: H237-MB549/MRAL-k0 (antibody, mouse IgG1, kappa)
heavy: B1 heavy with A322D
light: not shown
notes: copies: 2 + 2
B15: H237-MB722/MRAL-k0 (antibody)
heavy: B1 heavy with P230A, N231Y, V233E, M235D, L294S, D320N, R330K
light: not shown
notes: copies: 2 + 2
B16: H237-MB864/MRAL-k0 (antibody, mouse IgG1, kappa)
heavy: B1 heavy with M235L, K264D, L294S, D320N, A322D, A323G
light: not shown
notes: '8239L' in r313c2 read as S239L; copies: 2 + 2
B17: H237-MB548/MRAL-k0 (antibody, mouse IgG1, kappa)
heavy: B1 heavy with L294S, A322D
light: not shown
notes: copies: 2 + 2
B18: H237-MB865/MRAL-k0 (antibody, mouse IgG1, kappa)
heavy: B1 heavy with M235L, K264D, Q291L, L294S, D320N, A322D, A323G, R330K
light: not shown
notes: copies: 2 + 2
B19: H237-MB719/MRAL-k0 (antibody, mouse IgG1, kappa)
heavy: B1 heavy with M235Q, L294S, D320N, R330K
light: not shown
notes: copies: 2 + 2

Columns and labels:
[1] = molecular target: T1, mouse FcγRIII extracellular domain, …; assay: SPR Biacore T200, KD ratio, template MB515
Description: (§1) The antibody H chain variable region used was the variable region H237 (SEQ ID NO: 1) of the H chain VH3-IgG1 of the anti-IL-6 receptor antibody Fv4-IgG1 described in WO2009/125825. The antibody L chain commonly used was the L chain MRAL-k0 (SEQ ID NO: 2) of the anti-IL-6 receptor antibody tocilizumab. H237-MB476/MRAL-k0 and H237-MB515/MRAL-k0 were used as templates to introduce new alterations. These variants were expressed and purified by the method of Reference Example 1 and evaluated for their binding to mFcγRII and mFcγRIII by the method of Reference Example 2 using Biacore T200.
(§2) Each altered antibody was analyzed for its interaction with each Fcγ receptor prepared above using Biacore T100 (GE Healthcare Japan Corp.), Biacore T200 (GE Healthcare Japan Corp.), Biacore A100, or Biacore 4000. The running buffer used was HBS-EP+ (GE Healthcare Japan Corp.). The assay temperature was set to 25° C. The sensor chips used were chips prepared by immobilizing Protein L (ACTIGEN or BioVision) onto Series S Sensor Chip CM5 (GE Healthcare Japan Corp.) or Series S Sensor Chip CM4 (GE Healthcare Japan Corp.) by the amine coupling method.
(§3) In order to calculate the KD value of each altered antibody for FcγR, kinetic analysis was conducted according to the following method: first, the antibody of interest was captured onto any of these chips and allowed to interact with mFcγR diluted with a running buffer. For the obtained sensorgram, the assay results were globally fit into the 1:1 Langmuir binding model using Biacore Evaluation Software to calculate an association rate constant ka (L/mol/s) and a dissociation rate constant kd (1/s). From these values, the dissociation constant KD (mol/L) was calculated.

[2] = molecular target: T2, mouse FcγRII extracellular domain, …; assay: SPR Biacore T200, KD ratio, template MB515
Description: as §1, §2, §3

[3] = molecular target: T1, mouse FcγRIII extracellular domain, …; assay: SPR Biacore T200, KD ratio
Description: as §1, §2, §3

[4] = molecular target: T2, mouse FcγRII extracellular domain, …; assay: SPR Biacore T200, KD ratio
Description: as §1, §2, §3

[5] = molecular target: T3, mouse FcγRII extracellular domain, …; assay: SPR (Biacore T200); KD of H237-mIgG1/MRAL-k0 / KD of variant
[6] = molecular target: T4, mouse FcγRIII extracellular domain, …; assay: as above
[7] = molecular target: T5, mouse FcγRIII; assay: SPR (Biacore), antibody captured on Protein L
[8] = molecular target: T6, mouse FcγRII; assay: SPR (Biacore), antibody captured on Protein L
[9] = molecular target: T5, mouse FcγRIII; assay: SPR (Biacore), KD of H237-mIgG1/MRAL-k0 / KD of variant
Experimental: as §2, §3

[10] = molecular target: T6, mouse FcγRII; assay: as above
Experimental: as §2, §3

Row | Kd [7] | Kd [8] | relative mFcγRIII-binding activity (mIgG1 = 1) [9] | relative mFcγRII-binding activity (mIgG1 = 1) [10] | also measured | Binder
1 | – | – | – | – | relative mFcγRIII-binding activity (template = 1) [1]: 4.28 fold; relative mFcγRII-binding activity (template = 1) [2]: 1.15 fold; relative mFcγRIII-binding activity (mIgG1 = 1) [3]: 5.6 fold; relative mFcγRII-binding activity (mIgG1 = 1) [4]: 158 fold | B1
2 | – | – | – | – | relative mFcγRII-binding activity (mIgG1 = 1) [5]: 2.48 fold; relative mFcγRIII-binding activity (mIgG1 = 1) [6]: 0.61 fold | B2
3 | 50 nM | 1.33 nM | 5.6 fold | 158 fold | – | B3
4 | 248 nM | 5.81 nM | 1.1 fold | 36.2 fold | – | B4
5 | 645 nM | 19 nM | 0.4 fold | 11 fold | – | B5
6 | 86.4 nM | 2.04 nM | 3.3 fold | 103 fold | – | B6
7 | 249 nM | 5.99 nM | 1.1 fold | 35 fold | – | B7
8 | 117 nM | 2.74 nM | 2.4 fold | 76.8 fold | – | B8
9 | 33 nM | 0.904 nM | 8.5 fold | 232 fold | – | B9
10 | – | – | – | – | relative mFcγRII-binding activity (mIgG1 = 1) [5]: 0.16 fold; relative mFcγRIII-binding activity (mIgG1 = 1) [6]: 0.05 fold | B10
11 | – | – | – | – | relative mFcγRII-binding activity (mIgG1 = 1) [5]: 0.12 fold; relative mFcγRIII-binding activity (mIgG1 = 1) [6]: 0.07 fold | B11
12 | – | – | – | – | relative mFcγRIII-binding activity (template = 1) [1]: 3.43 fold; relative mFcγRII-binding activity (template = 1) [2]: 1.24 fold; relative mFcγRIII-binding activity (mIgG1 = 1) [3]: 4.5 fold; relative mFcγRII-binding activity (mIgG1 = 1) [4]: 170 fold | B12
13 | 19.3 nM | 0.56 nM | 14.6 fold | 375 fold | – | B13
14 | – | – | – | – | relative mFcγRIII-binding activity (template = 1) [1]: 4.11 fold; relative mFcγRII-binding activity (template = 1) [2]: 1.53 fold; relative mFcγRIII-binding activity (mIgG1 = 1) [3]: 5.4 fold; relative mFcγRII-binding activity (mIgG1 = 1) [4]: 210 fold | B14
15 | 341 nM | 8.04 nM | 0.8 fold | 26.1 fold | – | B15
16 | 77.6 nM | 1.9 nM | 3.6 fold | 110 fold | – | B16
17 | – | – | – | – | relative mFcγRIII-binding activity (template = 1) [1]: 2.99 fold; relative mFcγRII-binding activity (template = 1) [2]: 2.6 fold; relative mFcγRIII-binding activity (mIgG1 = 1) [3]: 3.9 fold; relative mFcγRII-binding activity (H237-mIgG1/MRAL-k0 = 1) [4]: ≥ 350 fold; relative mFcγRII-binding activity (mIgG1 = 1) [4]: 357 fold; relative mFcγRII-binding activity (template H237-MB515/MRAL-k0 = 1) [4]: ≥ 1.4 fold | B17
18 | 84.4 nM | 2.51 nM | 3.3 fold | 83.8 fold | – | B18
19 | 122 nM | 2.98 nM | 2.3 fold | 70.4 fold | – | B19
